In patent US20210171640A1 (Janssen / Centocor, published 2021):
Residue numbers refer to the chain shown, from its start.

B1: VSTB103 (antibody, V domains shown)
VH: EVQLVQSGAEVKKPGESLKISCKGSGYSFTSYWIGWVRQMPGKGLEWMGIIYPGDSDTRYSPSFQGQVTISADKSISTAYLQWSSLKASDTAMYYCARDDALYGGYYLDYWGQGTLVTVSS
VL: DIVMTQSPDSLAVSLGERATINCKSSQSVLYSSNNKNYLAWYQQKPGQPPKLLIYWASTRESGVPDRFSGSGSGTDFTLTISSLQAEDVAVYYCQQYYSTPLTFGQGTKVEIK
B2: VSTB50 (antibody, human IgG1, kappa, V domains shown)
VH: QVQLVQSGSELKKPGASVKVSCKASGYTFTNYGLNWVRQAPGQGLEWMGWINPYTGEPTYADDFKGRFVFSLDTSVSTAYLQICSLKAEDTAVYYCAREGYGNYIFPYWGQGTLVTVSS
VL: DIVMTQTPLSLSVTPGQPASISCRASESVDTYANSLMHWYLQKPGQPPQLLIYRASNLESGVPDRFSGSGSGTDFTLKISRVEAEDVGVYYCQQTNEDPRTFGQGTKLEIKR
B3: VSTB60 (antibody, human IgG1, kappa, V domains shown)
VH: B2 VH with L34M, N35T, P53T, P58S, E99D, G100Y, N103I, I105V, F106S, P107A
VL: B2 VL with T31N, L36F, P47S, T95S, N96H, R100Y
B4: VSTB95 (antibody, human IgG1, kappa, V domains shown)
VH: EVQLVESGGGLVQPGGSLRLSCAASGFTFRNYGMSWVRQAPGKGLEWVASIISGGSYTYYPDSVKGRFTISRDNAKNSLYLQMNSLRAEDTAVYYCARIYDHDGDYYAMDYWGQGTTVTVSS
VL: DIVMTQSPLSLPVTPGEPASISCRSSQSIVHSNGNTYLEWYLQKPGQSPQLLIYKVSNRFSGVPDRFSGSGSGTDFTLKISRVEAEDVGVYYCFQGSHVPWTFGQGTKLEIKR
B5: VSTB53 (antibody, human IgG1, kappa, V domains shown)
VH: QVQLVQSGAEVKKPGASVKVSCKASGYTFTHYTIHWVRQAPGQGLEWMGYIIPSSGYSEYNQKFKDRVTMTRDTSTSTVYMELSSLRSEDTAVYYCARGAYDDYYDYYAMDYWGQGTLVTVSS
VL: B4 VL with S28T, G96A
B6: VSTB74 (antibody, V domains shown)
VH: QMQLVQSGPEVKKPGTSVKVSCKASGYIFTDYNIDWVRQARGQRLEWIGDINPKYDSTRYNQKFKGRVTITRDMSTSTAYMELSSLRSEDTAVYYCAADGSSAMDYWGQGTTVTVSS
VL: DIVMTQSPDSLAVSLGERATINCKSSQSLLNSGHQKNYLAWYQQKPGQPPKLLIYGASTRESGVPDRFSGSGSGTDFTLTISSLQAEDVAVYYCQNDHRYPLTFGQGTKLEIKR
B7: VSTB116 (antibody, human IgG1, kappa, V domains shown)
VH: QVQLVQSGAEVKKPGSSVKVSCKASGGTFSSYAISWVRQAPGQGLEWMGGIIPIFGTANYAQKFQGRVTITADESTSTAYMELSSLRSEDTAVYYCARSSYGWSYEFDYWGQGTLVTVSS
VL: DIQMTQSPSSLSASVGDRVTITCRASQSINTNLNWYQQKPGKAPKLLIYAASSLQSGVPSRFSGSGSGTDFTLTISSLQPEDFATYYCQQARDTPITFGQGTKVEIKR

Assays:
[1] = target: T1, cynomolgus VISTA extracellular domain (cynomolgus, UniProt A0A7N9IB00 33-194); assay: ProteOn SPR
T1 construct: extracellular domain; also called SB0361 (cyno); cyno VISTA ECD
T1 sequence: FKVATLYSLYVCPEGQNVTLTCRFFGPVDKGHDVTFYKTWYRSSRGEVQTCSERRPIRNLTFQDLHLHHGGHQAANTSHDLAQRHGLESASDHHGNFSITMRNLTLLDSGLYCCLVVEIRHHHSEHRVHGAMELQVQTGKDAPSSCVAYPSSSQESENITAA
Method: (§1) Antibodies were captured on ProteOn chips using anti-IgG Fc coated surfaces. […] The antigens were allowed to bind/associate to the antibody-coated chips for 4 minutes after which time dissociation was monitored for 30 minutes. Chips were regenerated with two treatments of 100 mM phosphoric acid for 18 seconds. All experiments were run at 25° C. and data was fit to 1:1 Langmuir binding model.

[2] = target: T2, human VISTA extracellular domain (human, UniProt Q9H7M9 33-194); assay: ProteOn SPR
T2 construct: also called SB0361 (human); human VISTA ECD
T2 sequence: T1 sequence with L6P, F24L, F25L, S145N, A148V, E155D
Method: as §1

[3] = target: T3, human VISTA expressed on cells (human, UniProt Q9H7M9 33-295); assay: cell-based or functional assay
T3 sequence: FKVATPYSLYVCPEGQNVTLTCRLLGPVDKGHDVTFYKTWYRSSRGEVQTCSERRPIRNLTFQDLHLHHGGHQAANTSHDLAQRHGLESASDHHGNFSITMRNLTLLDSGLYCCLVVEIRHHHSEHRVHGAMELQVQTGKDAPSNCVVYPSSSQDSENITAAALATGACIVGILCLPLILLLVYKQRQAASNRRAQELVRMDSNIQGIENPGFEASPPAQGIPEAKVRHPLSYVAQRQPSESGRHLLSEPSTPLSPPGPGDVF

[4] = target: T3, human VISTA expressed on cells; assay: cell-based or functional assay; remark: listed apart in the source
[5] = target: T3, human VISTA expressed on cells; assay: cell-based or functional assay; remark: listed apart in the source

Binder | Kd [1] [pM] | koff [1] [s⁻¹] | kon [1] [M⁻¹ s⁻¹] | Kd [2] [pM] | koff [2] [s⁻¹] | kon [2] [M⁻¹ s⁻¹] | IC50, IFN-γ in the SEB assay [3] | IC50, IFN-γ in the MLR [4] | EC50 IFNγ production, MLR [5] [µg/mL]
B1 | 302 | 0.00018 | 598000 | 636 | 0.000336 | 528000 |  |  | 
B2 |  |  |  |  |  |  | 1.69 log10 of antibody concentration | 0.06 log10 of antibody concentration | 1.14
B3 |  |  |  |  |  |  |  | 0.4 log10 of antibody concentration | 2.48
B4 |  |  |  |  |  |  | 0.05 log10 of antibody concentration | 0.22 log10 of antibody concentration | 1.67
B5 |  |  |  |  |  |  | -1.05 log10 of antibody concentration | 0.27 log10 of antibody concentration | 1.88
B6 | 347 | 0.000144 | 415000 | 562 | 0.000223 | 397000 |  |  | 
B7 |  |  |  |  |  |  | -0.35 log10 of antibody concentration | -0.16 log10 of antibody concentration | 0.69
